Laboratory results published in patent US20040053370A1.
Several values for one entry are separate records, joined by “and”; a condition that tells them apart may be missing. Identical values can stand only once.

Target: GLP-1 receptor
Assay: cell-based or functional assay

In Vitro Activity (% of Val^8-GLP-1) (% of Val^8-GLP-1) | GLP-1 Receptor Activation (fold of GLP-1(7-37)OH) | Substance
3.3 |  | Gly^8-GLP-1-IgG1 (from UniProt P01857 99-330) (Fc fusion)
 | 2.07 | Val^8-Trp^16-Glu^22-Val^25-GLP-1(7-37)OH (peptide)
 | 2.3 and 2.73 and 3.15 | Val^8-Glu^22-Val^25-Ile^33-GLP-1(7-37)OH (peptide)
 | 1.93 | Val^8-Trp^16-Glu^22-Ile^33-GLP-1(7-37)OH (peptide)

Substance | In Vitro Activity (% of Val^8-GLP-1) (% of Val^8-GLP-1) | GLP-1 Receptor Activation (fold of GLP-1(7-37)OH)
Val^8-Lys^33-Asn^34-GLP-1(7-37)OH (peptide) |  | 0.09
